Assay: yeast display, Sf9 membrane polyspecificity reagent, FACS + sequencing; frameworks hold sequencing errors
Procedure, shortened: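 Nanobodies came from a synthetic yeast display library in Saccharomyces cerevisiae BJ5465, induced with galactose for 36–48 hours and stained for 1 hour at 4 °C with 10% biotinylated, detergent-solubilized Sf9 membrane reagent. Cells were enriched on streptavidin microbeads and then FACS-sorted, with low and high (top ~1%) gates set on anti-HA fluorescence for expression and streptavidin fluorescence for reagent binding. Each polyreactivity label reflects the gate a clone came from. Genes were amplified by colony PCR, sequenced by MiSeq 2 × 250 and filtered by CDR length.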

Sequence | polyreactivity (PSR sort gate)
QVQLVESGGGLVQAGGSLRLSCAASGSTFWFYAMGWYRQAPGKERELVAAITRGGSTYYADSVKGRFSISRDNAKNTVYLQMNSLKPEDTAVYYCAAEVGWSRYKWLEYWGQGTQVTVSS | low polyreactivity
QVQLVETGGVLVQAGGSLRLSCAASGRTFRYNAMGWYRPAPGKEREFVAAITWGGGSTYYADSVKGRFTISRDNAKNTVYLQMNSLKPEDTAVYYCNADYIGNYQSIYQYDYWGQGTQVTVSS | low polyreactivity
QVQLVESGGGVVQAGGSLRLSCAASGRIFPYNAMGWYRQAPGKERELVAAISSGGSTTYADSVKGRFTISRDNAKNTVYLHMNSLKPEDTAVYYCAREVYRHYAPVGYDYWGQGTQVTVSS | high polyreactivity
QVQLVESGGGLVQAGGSLRLSCAASGSNLVTNSMGWYRQAPGKERELVATITSSGTSTYYADSVKGRFTISRDNAKNTVYLQMNSLKPEDTAVYYCNADDQFAYVVYLWEYHIVQYDYWGQGTQVTVSS | high polyreactivity
QVQLEESGAGLVQAGGSLRLSCAASGRTFYRYAMGWYIQAPGKERELVAAITSGDRTYYADSVKGRFTISRDNALNTVYLQMNSLKPEYTAVYYCAARRDYWARYYYWGQGTQVTVSS | high polyreactivity
QVQLVESVGRLVQAGGSLRLSCAASGFIFIFYTMGWYRHAPGKERELVASITSSGGSTYYADSVKGRFTISRDNAKNTVYLQMNSLNPEDTAVYYCAAKKYRSPRGYWGLGTQVTVSS | high polyreactivity
QVQLVESGGGLVQAGGSLRLSCAASGRTFWVYAMGWYRQAPGKERELVAAIRRGGITNYADSVKGRFTISRDNAKNTVYLQMNSLKPEDTAVYYCATDNYGYLTRYYYWGQGTQVTVSS | low polyreactivity
QVQLVESGGGLVQAGGSLRLSCAASGFIFPRNAMGWYRPAPGKERELVAAISRSGGRTYYADSVKGRFTISRDNAKNTVYLQMNSLKPEDTAVYYCNADLALRSRYGEYDYWGQGTQVTVSS | high polyreactivity
QVQLVESGGGLVQAGGSLRLSCAASGNTFRYYAMGWYRQAPGKERELVATITSGGRTYYADSVKGRFTISRDNAKNTVYLQMNSLKPEDTAVYYCAAVGLDYFVGEYDYWGQGTQLTVSS | low polyreactivity
QVQLVESGGGLVQAGGSLRLSCAASGSIFPHYAMGWNRQAPGKERELVAAISSGGRTYYADSVKGRFTISRDNAKNTVYLQMNSLKPEDTAVYYCAARRIARKGYGYWGQGTQVTVSS | high polyreactivity
QVQLVESGGGLVQAGGSLRLSCAASGRIFTHNAMGWYRQAHGKERELVAAISFSGVSTYYADSVKGRFTISRDNAKNTVYLQMNSLKPEDTAVYYCARRYWYPDAFYRYDYWGQGTQVTVSS | low polyreactivity
QVHLVESGGGLVQAGGSLRLSCAASGITFGYYAMGWYRQAPGKERELVAAISNSGRTYYADSVKGRFTISRDNAKNTVYLQMNSLKPEDTAVYYCADVDAYYDFYYWGQGTQVTVSS | low polyreactivity
QVQLVESGGCLVQAQGSLRLSCAASGFTFGYNAMGWYRQAPGKERELVAVISSRGGRTYYADSVKGRFTISRDNAKNTVYLQMYSLKPEDTAVYYCAKRSGSYSYPAVGGWGLGYCGQGTQVTVSS | high polyreactivity
QVQLVQSVGGLVHAGGSLRLSCAASGRTYGVYAMGWYRQAPGKERELVAAITYSGGSTYYADSVKGRFTISRDNAKNTVYLQMNSLKPEDTAVYYCAAETRVGLYYVREVYYWGQGTQVTVSS | low polyreactivity
QVQLVESGGGLDQEGGSLRLSCAASGNIFSSYLMGWYRQAPGKEREVVAAISSRGGSTYYADSVKGRFTISRDNAKNSVYLQMNSLKPEDTAVYYCAARTGRYYRRYDYWGQGTQVTLSS | high polyreactivity
QFQLVESGGGLVQAGGSLRLSCAASGFIIKFYAMGLYRQAPGKERELVATITFSSGTTYYADSVKGRFTISRDTAKNTVYLQLNSLKPEDTAVYYCAAERGVDDSARNGDYDYWGQGTQVTVSS | low polyreactivity

Sequence | polyreactivity (PSR sort gate)
QVQLEESGGGLVQAGGSLRLSCAASGFTFSHNAMGWYIQAPGKERELVAAITRDSGSTYYADSVKGRFTISRDNAKNTVYLQMNSLTPEDTAVYYCAADIASGYYWYDYWGQGTQVTVSS | low polyreactivity
QVQLVESGGGLVQAGGSLRLSCAATVSTIKTYATMGLYRQAPWTERELVAAITSGSSTNYADSVKGRFTISRDNAKNTVYLQMNSMKPEDTAVYYCAADDYYNWYLGEPGDYWGQGTQVTVSS | low polyreactivity
QVQLVESGGGLVQAGGSLRLCCAASGRTFPYYAMGWYRQAPGKERELVAAISSSGGRTYYADSVKGRFTISRDNAKNTVYLQMNSLKPEDTAVYYCNVDAWYPYQGFLVGYYYWGQGTQVTVSS | low polyreactivity
QVQLVESGGGLVQAGGSLRLSCAASGFIFGTNAMGWYRQAPGKERELVAAISIGDSTYYADSVKGRFTISRDNAKNTVYVQKNSLKPEDTAVYYCNARAYSIYLLQKTYAFNYWGQGTQVTVSS | low polyreactivity
QVQLVESGGGLVQAGGSLRLSSAASGSIFTYYAMGWYRQAPGKERELLASISRHGGSTYYADSVKGRFTISRDNAKNTVYLQMNSLKPEDTAVYYCNARGWHTKVVSPRYYWGQGTQVTVSS | high polyreactivity
QFQLVESGGGLVQAGGSLRLSCAASGFTFPYNGMGWYRQAPGKERELVAAISYGGGGKYYADSVKGRFTISRDNAKNTVYLQMNSLKPEDTAVYYCATDDPLSQINEQGMDYWGQGTQVTVSS | low polyreactivity
QVQLVESVGGLVQAGGSLRLSCAASGITFNRYAMGWYRQAPGKERELVAAITGGGSRTFYADSVKGRFTISGDNAKNTVDLQMNSLKPEDTAVYYCAKGLSTGRAYRGYDYWGQGTQVTVSS | high polyreactivity
QVQLVESGGGLVQAGGSLRLSCAASGRTFYGYAMGWYRQAPGNERELVATITRRGGSTYYADSVKGRFRISRDNAKNTVYLQMNSLKPEDTAVYYCARQGDQYYRDGDDYWGQGTQVTVSS | high polyreactivity
QVQLVESGGGLVQAGGSLRLSCAASGRTFSYYAMGWYRQAAGKERELVAAISRAGRTNYADSVKGRFTISRDNAKNTVYLQMNSLKPEDTAVYYCAATGWLRIDRPYTYTYCYWGQGTQVTVSS | high polyreactivity
QVQLVESGGGLVQAGGSLRLSCAASGRIISRYAMGWYRQAPGKERELVAAISRRGGSTYYADSVKGRFTISRDNAKNTVYLQLNSLKPEDTAVYYCNADTGNRGYDYWGQGTQVTVSS | high polyreactivity
QVQLVESGGGLVQAGGSLRLSSAASGYTYYVYAMGWYRQAPGKERELVAAISGGSNTYYADSVKGRFTISRDNAKNTVYLQMNSRKPEDTAVFYCAKSSTTYRQRARYDYWGLGTQVTVSS | high polyreactivity
QVQLVESGGGLVQAGGSLRLSCAASGFTFDGYAMGWDRQAPGKESELVAAISDSGDSTYYADSVKGRFTISRDNAKNTVYLQMNSLTPEDTAVYYCAAGLGYYWSDYFADDSCGQGTQVTVSS | low polyreactivity
QVQLVESGGGLVQAGGSLRLSCAASGFTFRTYAMGWYTQAPGKERELVADISGSGGSTYYADSVKGRFTISRDNAKNTVYLQMNSLKPEDTAVYYCAADYASWSNWGYEYWGQGTQVTVSS | high polyreactivity
QVQLVESGGGLVQAGGSLRLSCAASGSTFVPYPMGWYRQAPGKERELVAAISSTGGSTYYADSVKGRFTISRDNAKNTVYLQMNSLKPEDNAVYYCNALAKIRYGQINKGYYRGQGTQVTVSS | high polyreactivity
QVQLVESGGGLVQAGGSLRLSCAASGRIYGDNTMGWYRQAPGKEREFVAAISFIGGSTYYADSVKGRFTISRDNAKNTVYLQMNSLKPEDTAVYYCATVERWTYWFVGYDYWGQGTQVTGSS | high polyreactivity

— the nanobody polyreactivity screen of Harvey et al. (2022)
